Laboratory results reported in patent US20210180049A1 (CHUGAI SEIYAKU KABUSHIKI KAISHA, priority 2013, published 2021).

B1: SMB0002: rabbit B cell cloning antibody binding adenosine and ATP; heavy chain SEQ ID NO: 30, light chain SEQ ID NO: 31 (antibody, listed as Oryctolagus cuniculus)
heavy: CQSVEESGGRLVTPGTPLTLTCTVSGIDLSNYAMGWVRQAPGKGLEWIGIIGADSSTWYPSWVKGRFTISKTSTTVDLKMTSLTTEDTATYFCARGRFVGYTNAFDPWGPGTLVTVSS
light: AQVLTQTPSSVSAAVGGTVTISCQSSQSVWNNNYLSWYQQKPGQPPKLLIFDASTLASGVPSRFSGRGSGTQFTLTISGVQCEDAATYYCHGSYANSGWYDNAFGGGTEVVVK
B2: ATNLSA1-4_D12: ATP/adenosine-binding antibody; heavy-chain variable region SEQ ID NO: 48, light-chain variable region SEQ ID NO: 49 (antibody, listed as Homo sapiens, V domains shown)
VH: QVQLQESGGDLVKPGGFLRLSCAASGFTFNTYTMNWVRQAPGKGLEWLSSISSRSNYINYADSVKGRFTISRDNAKNSLYLQMNSLRAEDTAVYYCARFGRKGDLNWVFDYWGQGTLVTVSS
VL: QSALTQPPSASGSPGQTVTISCTGTSSDVGGYNYVSWYQQHPGKAPKLMIYEVSKRPSGVPDRFSGSKSGNTASLTVSGLQAEDEADYFCSSYAGSNNVVFGGGTKLTVL

Key:
[1] = SPR (Biacore T200) binding of SMB0002 to adenosine; conditions: Biacore T200, 25° C., antibody captured on protein A; read-out: KD of SMB0002 toward adenosine
Experimental: Using Biacore T200 (GE Healthcare), the antibody SMB0002 obtained by the B cell cloning method was analyzed for its interaction with adenosine in antigen-antibody reaction. Sensor chip CM5 (GE Healthcare) was immobilized with an appropriate amount of protein A (Invitrogen) by amine coupling. Antibodies of interest were captured by the chip to allow interaction to adenosine as an antigen. The running buffer used was 50 mmol/1 TrisHCl, 150 mmol/1 NaCl, 0.02% (w/v) Tween20, pH 7.6. All measurements were carried out at 25° C. The antigens were diluted using the running buffer.
Then, running buffer was run at a flow rate of 30 μL/min for four minutes and dissociation of the antigen from the antibody was observed. Next, 10 mmol/L glycine-HCl, pH 1.5, was loaded at a flow rate of 30 μL/min for 30 seconds to regenerate the sensor chip. Kinetic parameters such as the association rate constant ka (1/Ms) and the dissociation rate constant kd (l/s) were calculated based on the sensorgrams obtained by the measurements. The dissociation constant KD (M) was calculated from these constants. Each parameter was calculated using the Biacore T200 Evaluation Software (GE Healthcare).

[2] = SPR binding of SMB0002 to ADP; conditions: Biacore, NaCl concentration 600 mM; read-out: KD of SMB0002 toward ADP
Experimental: Binding to ADP was assessed by a method similar to the measurement method using Biacore described in Example 3-2, except that the NaCl concentration was changed to 600 mM. Binding of SMB0002 was assessed at ADP concentrations of 2000, 1000 (duplicate), 500, 250, 250, 125, 62.5, and 31.3 μM.

[3] = SPR (Biacore T200) binding of SMB0002 to ATP; conditions: Biacore T200, 25° C., antibody captured on protein A/G; read-out: KD of SMB0002 toward ATP
Experimental: Biacore T200 (GE Healthcare) was used to analyze interaction in the antigen-antibody reaction with ATP. The antibody of interest was captured onto protein A/G (Invitrogen) immobilized in an appropriate amount onto Sensor chip CM5 (GE Healthcare) by the amine coupling method, and ATP which is the antigen was allowed to interact. The running buffer used was 10 mmol/L ACES, 150 mmol/L NaCl, 0.05% (w/v) Tween 20, pH 7.4. All measurements were carried out at 25° C. The antigen was diluted with running buffer.
Then, running buffer was run at a flow rate of 20 μL/min for three minutes and dissociation of the antigen from the antibody was observed. Next, 10 mmol/L glycine-HCl, pH 1.5, was injected at a flow rate of 30 μL/min for 30 seconds to regenerate the sensor chip. Kinetic parameters such as the association rate constant ka (1/Ms) and the dissociation rate constant kd (l/s) were calculated based on the sensorgrams obtained by the measurements. The dissociation constant KD (M) was calculated from these constants. Each parameter was calculated using the Biacore T200 Evaluation Software (GE Healthcare).

[4] = SPR binding of SMB0002 to AMP; conditions: Biacore; read-out: KD of SMB0002 toward AMP
Experimental: Binding of SMB0002 was assessed at AMP concentrations of 500, 250 (duplicate), 125, 62.5, 31.25, 15.625, and 7.8125 μM.

[5] = competitive ELISA of 2′-Adenosine-PEG-Biotin-binding clones with adenosine and ATP; conditions: 50 nM 2′-Adenosine-PEG-Biotin with 500 μM adenosine or ATP; absorbance at 405 nm
Experimental: To immobilize the antibodies, the plate was allowed to stand for one hour or more at room temperature. After the antibodies diluted with PBS were removed from each well, TBS containing 1% BSA was added thereto and the plate was allowed to stand for one hour or more. Then, the TBS (pH 7.4) containing 1% BSA was removed from the plate. 2′-Adenosine-PEG-Biotin diluted to 50 nM with PBS, a mixture of 2′-Adenosine-PEG-Biotin and adenosine diluted to 50 nM and 500 μM respectively with PBS, a mixture of 2′-Adenosine-PEG-Biotin and ATP diluted to 50 nM and 500 μM respectively with PBS, or PBS alone was added to the plate. The plate was allowed to stand at room temperature for one hour, and then washed three times with 80 μl of PBS containing 0.05% Tween-20. Then, Streptavidin-HRP (Thermo fisher scientific) diluted 20000 times with PBS was added to each well, and the plate was allowed to stand for one hour or more at room temperature. After the plate was washed three times with 80 μl of PBS containing 0.05% Tween-20, a chromogenic substrate (ABTS peroxidase substrate) was added to each well. After the plate was incubated for one hour, color development in the solution of each well was assessed by measuring absorbance at 405 nm using SpectraMax from Molecular Device.

[6] = SPR (Biacore T200) binding of D12 and ATNLSA1-4_D12 variants to ATP; conditions: Biacore T200, 15° C., 500 mM NaCl
Experimental: (§1) Sensor chip CM5 or CM4 (GE Healthcare) was immobilized with an appropriate amount of protein A (Life technologies) by amine coupling. The antibody of interest was captured by the chip to allow interaction with ATP (Wako), adenosine (Wako), or ADP (adenosine diphosphate) (Wako) as an antigen. The running buffer used was 50 mM Tris-HCl (Takara, T903), 500 mM NaCl, 0.01% (w/v) Tween20. The antigen was allowed to interact for 30 seconds at a flow rate of 30 μl/min, and was dissociated for 30 seconds. The interaction with the antigen was assessed at 15° C. The antigen was diluted using the same running buffer.
(§2) The dissociation constant KD (M) was calculated based on the association rate constant ka (1/Ms) and dissociation rate constant kd (l/s), both of which are kinetic parameters calculated from the sensorgram obtained by the measurement. Alternatively, the dissociation constant KD (M) was calculated using steady state analysis. Each parameter was calculated using the Biacore T200 Evaluation Software (GE Healthcare).
Based on the assay result, the affinity of each variant for ATP was calculated as a KD value. […]
It was determined that amino acids substituted at the sites could be included in a library (flexible residues to be introduced into a library).

[7] = SPR (Biacore T200) binding of D12 and variants to adenosine; conditions: Biacore T200, 15° C., corrected with 20 μmo1/1 ADP, Formula 2
Experimental: as §1, §2
To calculate the KD for adenosine, the binding response was assessed at various concentrations of adenosine in the presence or absence of 20 μmo1/1 ADP. In addition, the binding response was separately assessed in the presence of 20 μmo1/1 ADP. […]

[8] = phage ELISA for binding to 5′-adenosine-PEG-biotin
Experimental: (§3) Next, for the purpose of confirming to which antigen of 2′-adenosine-PEG-biotin, 5′-adenosine-PEG-biotin, and ATP-PEG-biotin these clones have binding ability, the purified phages diluted with TBS were subjected to ELISA by the following procedure. A StreptaWell 96 microtiter plate (Roche) was coated at room temperature for one hour with 100 μl of TBS containing a biotin-labeled antigen (2′-adenosine-PEG-biotin, 5′-adenosine-PEG-biotin, or ATP-PEG-biotin). After the antigens were removed by washing each well of the plate with TBST, the wells were blocked with 250 μl of 2% skim milk/TBS for one hour or more. 2% skim milk/TBS was removed, and then the prepared, purified phages were added to each well. The plate was allowed to stand at room temperature for one hour to allow binding of antibody-displaying phages to antigens in each well. After TBST wash, a HRP-conjugated anti-M13 antibody (Amersham Pharmacia Biotech) diluted with TBS was added to each well. The plate was incubated for one hour. Following TBST wash, the TMB single solution (ZYMED) was added to each well. The chromogenic reaction in the solution of each well was terminated by adding sulfuric acid. Then, the developed color was assessed by measuring absorbance at 450 nm.

[9] = SPR (Biacore T200) binding of D12 to ADP; conditions: Biacore T200, 15° C., 500 mM NaCl
Experimental: as §1, §2

[10] = phage ELISA for binding to ATP-PEG-biotin
Experimental: as §3

[11] = competitive phage ELISA with ATP; format: binding; conditions: ATP from equal amount up to 10000 times that of the antigen
Experimental: ATNLSA1-4_D12 and PF1 were each diluted with TBS and subjected to ELISA by the following procedure.
A StreptaWell 96 microtiter plate (Roche) was coated at room temperature for one hour with 100 μl of TBS containing biotin-labeled antigens (a mixture of 5′-adenosine-PEG-biotin and ATP-PEG-biotin). After the antigens were removed by washing each well of the plate with TBST, the wells were blocked with 250 μl of 2% skim milk/TBS for one hour or more. 2% skim milk/TBS was removed, and then the prepared, purified phages were added to each well. The plate was allowed to stand at room temperature for one hour to allow binding of the antibody-displaying phages to the antigens in each well. […] For the competition of the immobilized antigen with ATP, the plate was allowed to stand at room temperature for one hour. Then, after TBST wash, an HRP-conjugated anti-M13 antibody (Amersham Pharmacia Biotech) diluted with TBS was added to each well. The plate was incubated for one hour. Following TBST wash, the TMB single solution (ZYMED) was added to each well. The chromogenic reaction in the solution of each well was terminated by adding sulfuric acid. Then, the developed color was assessed by measuring absorbance at 450 nm.

Experimental for Tm measurement by DSC: Measurement by DSC was carried out by a method known to those skilled in the art.
DSC measurement was carried out by a method known to those skilled in the art.

Molecule | Kd [1] | Kd [2] | Kd [3] | Kd [4] | binding to 2′-Adenosine-PEG-Biotin on adding excess amounts of adenosine and ATP [5] | Tm (Tm measurement by DSC) | Kd [6] | Kd [7] | binding to 5′-Adenosine-PEG-biotin [8] | Kd [9] | binding to ATP-PEG-biotin [10] | binding to biotin-labeled antigen with ATP as competitor [11]
B1 | 0.015 µM | 240 µM | 10 µM | 59 µM | inhibited |  |  |  |  |  |  | 
B2 |  |  |  |  |  | 74.37 °C | 8.5 µM | 1100 µM | ability to bind | 0.25 µM | ability to bind | inhibited in an ATP concentration-dependent manner
